# Legend:
# rat GHR ECD (L43R) = target: T1, rat GHR ECD (L43R) (Rattus norvegicus, UniProt P16310, L61R); assay: Biacore analysis of binding of GH to GHR; conditions: rat GHR ECD (L43R) immobilized on a CM5 chip, bivalent analyte model
# T1 construct: (GHR ECD, amino acids S29-T238) was cloned into pET20b vector; made in house
# T1 sequence (P16310 47-256 L61R): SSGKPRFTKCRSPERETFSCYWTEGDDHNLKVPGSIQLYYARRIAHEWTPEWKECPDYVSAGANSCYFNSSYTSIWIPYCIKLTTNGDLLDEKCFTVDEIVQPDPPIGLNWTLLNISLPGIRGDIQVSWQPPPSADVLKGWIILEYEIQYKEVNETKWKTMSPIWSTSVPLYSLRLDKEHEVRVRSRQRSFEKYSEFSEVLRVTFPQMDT
# Experimental: Cloning and purification of rat GH receptor The extracellular domain of rat GH receptor (GHR ECD, amino acids S29-T238) was cloned into pET20b vector (Novagen) between Nde I and Hind III sites in frame with C-terminal 6H is tag. A mutation of L43 to R was introduced to further approximate the human GH receptor binding site (Souza et al., Proc Natl Acad Sci USA. (1995) 92(4): 959-63). Recombinant protein was produced in BL21 (DE3) E. coli cells (Novagen) by induction with 0.4 mM IPTG at 30° C. for 4-5 hours. After lysing the cells, the pellet was washed four times by resuspending in a dounce with 30 mL of 50 mM Tris, pH 7.6, 100 mM NaCl, 1 mM EDTA, 1% Triton X-100, and twice with the same buffer without Triton X-100. […] Refolding was accomplished by means of passing an aliquot of the inclusion body solution through a S100 (Sigma) gel filtration column, equilibrated with 50 mM Tris, pH 7.8, 1 M L-arginine, 3.7 mM cystamine, 6.5 mM cysteamine. Fractions containing soluble protein were combined and dialyzed against 50 mM Tris, pH 7.6, 200 mM NaCl, 10% glycerol. The sample was briefly centrifuged to remove any precipitate and incubated with an aliquot of Talon resin (Clontech), according to manufacturer's instructions. After washing the resin with 20 volumes of dialysis buffer supplemented with 5 mM imidazole, protein was eluted with 120 mM imidazole in dialysis buffer. Finally, the sample was dialyzed overnight against 50 mM Tris, pH 7.6, 30 mM NaCl, 1 mM EDTA, 10% glycerol, centrifuged briefly to remove any precipitate, adjusted to 20% glycerol final concentration, aliquoted and stored at −80 C. Concentration of the protein was measured by OD(280) using calculated extinction coefficient of ε=65,700 M^−1*cm^−1.
# Approximately 600-800 RUs of soluble GHR ECD was immobilized on a Biacore™ CM5 chip, using a standard amine-coupling procedure, as recommended by the manufacturer. […] See, e.g., Cunningham et al. J Mol. Biol. (1993) 234(3): 554-63 and Wells J A. Proc Natl Acad Sci USA (1996) 93(1): 1-6).
# Various concentrations of wild type or mutant GH (0.1-300 nM) in HBS-EP buffer (Biacore™, Pharmacia) were injected over the GHR surface at a flow rate of 40 μl/min for 4-5 minutes, and dissociation was monitored for 15 minutes post-injection. The surface was regenerated by a 15 second pulse of 4.5M MgCl2. […] Reference cell with no receptor immobilized was used to subtract any buffer bulk effects and non-specific binding.
# Kinetic binding data obtained from GH titration experiments was processed with BiaEvaluation 4.1 software (BIACORE™). […] Equilibrium dissociation constants (Kd) were calculated as ratios of individual rate constants (koff/kon).
# [1] = Pharmacokinetic studies, single s.c. dose in normal male Sprague-Dawley rats; assay type: in vivo, rat; conditions: for AUC0−>inf / Cl/f / Cmax / MRT / Terminal t1/2: single-dose 1 mg/kg bolus s.c., normal male Sprague-Dawley rats
# Experimental: Pharmacokinetic properties of PEG-modified growth hormone compounds were compared to each other and to nonPEGylated growth hormone in male Sprague-Dawley rats (261-425 g) obtained from Charles River Laboratories. Catheters were surgically installed into the carotid artery for blood collection. Following successful catheter installation, animals were assigned to treatment groups (three to six per group) prior to dosing. Animals were dosed subcutaneously with 1 mg/kg of compound in a dose volume of 0.41-0.55 ml/kg. Blood samples were collected at various time points via the indwelling catheter and into EDTA-coated microfuge tubes. Plasma was collected after centrifugation, and stored at −80° C. until analysis. Compound concentrations were measured using antibody sandwich growth hormone ELISA kits from either BioSource International (Camarillo, Calif.) or Diagnostic Systems Laboratories (Webster, Tex.). Concentrations were calculated using standards corresponding to the analog that was dosed. Pharmacokinetic parameters were estimated using the modeling program WinNonlin (Pharsight, version 4.1). Noncompartmental analysis with linear-up/log-down trapezoidal integration was used, and concentration data was uniformly weighted.
# Rats (n=3-4 per group) were given a single bolus dose of 1 mg/kg hGH wild-type protein (WHO hGH), His-tagged hGH polypeptide (his-hGH), or His-tagged hGH polypeptide comprising non-natural amino acid p-acetyl-phenylalanine at position 92 covalently linked to 30 kDa PEG (30 KPEG-pAF92(his)hGH). Plasma samples were taken over the indicated time intervals and assayed for injected compound as described.
# Rats (n=3-6 per group) were given a single bolus dose of 1 mg/kg protein. hGH polypeptides comprising non-natural amino acid p-acetyl-phenylalanine covalently linked to 30 kDa PEG at each of six different positions were compared to WHO hGH and (his)-hGH. Plasma samples were taken over the indicated time intervals and assayed for injected compound as described. Concentration vs time curves were evaluated by noncompartmental analysis (Pharsight, version 4.1). Values shown are averages (+/− standard deviation). Cmax: maximum concentration; terminal t1/2: terminal half-life; AUC0->inf: area under the concentration-time curve extrapolated to infinity; MRT: mean residence time; Cl/f: apparent total, plasma clearance; Vz/f: apparent volume of distribution during terminal phase.
kon (rat GHR ECD (L43R)) [M⁻¹ s⁻¹],Substance,other results
580000,A155pAF: hGH with p-acetyl-phenylalanine (pAF) substituted for A155,–
680000,E88pAF: hGH with p-acetyl-phenylalanine (pAF) substituted for E88,–
620000,F92pAF-5KD PEG: hGH comprising p-acetyl-phenylalanine at position 92 covalently linked to a 5 kDa PEG molecule,–
170000,F92pAF-20KD PEG: hGH comprising p-acetyl-phenylalanine at position 92 covalently linked to a 20 kDa PEG molecule,–
130000,F92pAF-30KD PEG: His-tagged hGH polypeptide comprising p-acetyl-phenylalanine at position 92 covalently linked to 30 kDa PEG,"circulation (plasma concentrations) compared to control hGH ([1]; single bolus s.c. dose of 1 mg/kg in rats, FIG. 15): dramatically extended circulation compared to control hGH; AUC0−>inf [1]: 10,539 ng × hr/ml; Cl/f [1]: 2.25 mL/min/kg; Cmax [1]: 663 ng/mL; MRT [1]: 15.05 h; Terminal t1/2 [1]: 4.51 h"
860000,F92pAF: hGH with p-acetyl-phenylalanine (pAF) substituted for F92,–
680000,F139pAF: hGH with p-acetyl-phenylalanine (pAF) substituted for F139,–
–,G131pAF-30KPEG: hGH polypeptide comprising p-acetyl-phenylalanine at position 131 covalently linked to 30 kDa PEG,"AUC0−>inf [1]: 6,978 ng × hr/ml; Cl/f [1]: 2.68 mL/min/kg; Cmax [1]: 497 ng/mL; MRT [1]: 14.28 h; Terminal t1/2 [1]: 4.41 h"
600000,G131pAF: hGH with p-acetyl-phenylalanine (pAF) substituted for G131,–
620000,G136pAF: hGH with p-acetyl-phenylalanine (pAF) substituted for G136,–
720000,K140pAF: hGH with p-acetyl-phenylalanine (pAF) substituted for K140,–
–,K145pAF-30KPEG: hGH polypeptide comprising p-acetyl-phenylalanine at position 145 covalently linked to 30 kDa PEG,"AUC0−>inf [1]: 13,162 ng × hr/ml; Cl/f [1]: 1.47 mL/min/kg; Cmax [1]: 634 ng/mL; MRT [1]: 17.82 h; Terminal t1/2 [1]: 5.87 h"
640000,K145pAF: hGH with p-acetyl-phenylalanine (pAF) substituted for K145,–
1.25e+06,N12pAF: hGH with p-acetyl-phenylalanine (pAF) substituted for N12,–
220000,N99pAF: hGH with p-acetyl-phenylalanine (pAF) substituted for N99,–
640000,P133pAF: hGH with p-acetyl-phenylalanine (pAF) substituted for P133,–
660000,Q91pAF: hGH with p-acetyl-phenylalanine (pAF) substituted for Q91,–
680000,R16pAF: hGH with p-acetyl-phenylalanine (pAF) substituted for R16,–
560000,R94pAF: hGH with p-acetyl-phenylalanine (pAF) substituted for R94,–
680000,R134pAF-5KD PEG: hGH comprising p-acetyl-phenylalanine at position 134 linked to 5 kDa PEG,–
70000,R134pAF-30KD PEG: hGH polypeptide comprising p-acetyl-phenylalanine at position 134 covalently linked to 30 kDa PEG,"AUC0−>inf [1]: 7,304 ng × hr/ml; Cl/f [1]: 2.52 mL/min/kg; Cmax [1]: 566 ng/mL; MRT [1]: 12.15 h; Terminal t1/2 [1]: 4.36 h"
840000,R134pAF: hGH with p-acetyl-phenylalanine (pAF) substituted for R134,–
70000,S95pAF: hGH with p-acetyl-phenylalanine (pAF) substituted for S95,–
720000,T135pAF: hGH with p-acetyl-phenylalanine (pAF) substituted for T135,–
780000,Y35pAF: hGH with p-acetyl-phenylalanine (pAF) substituted for Y35,–
~6000,Y103pAF: hGH with p-acetyl-phenylalanine (pAF) substituted for Y103,–
840000,Y111pAF: hGH with p-acetyl-phenylalanine (pAF) substituted for Y111,–
–,Y143pAF-30KPEG: hGH polypeptide comprising p-acetyl-phenylalanine at position 143 covalently linked to 30 kDa PEG,"AUC0−>inf [1]: 17,494 ng × hr/ml; Cl/f [1]: 0.983 mL/min/kg; Cmax [1]: 803 ng/mL; MRT [1]: 18.83 h; Terminal t1/2 [1]: 6.02 h"
780000,Y143pAF: hGH with p-acetyl-phenylalanine (pAF) substituted for Y143,–

# Source: patent US8143216B2, “Modified human growth hormone” (Ambrx, Inc., priority 2004, dated 2012)
